From patent US20250304650A1

Target: feline FcRn (FCN-F82W3, Acrobiosystems) (feline)
Assay: SPR Carterra, IgG coupled, pH 6.0

Binder | Kd [nM] | koff [s⁻¹] | kon [M⁻¹ s⁻¹]
anti-NGF feline IgG1a, Fc variant S428L, T286E (antibody, part only; not given: anti-NGF variable domains, not shown: another chain or arm of the molecule; small tags and cut ends) Fc: PPEMLGGPSIFIFPPKPKDTLSISRTPEVTCLVVDLGPDDSDVQITWFVDNTQVYEAKTSPREEQFNSTYRVVSVLPILHQDWLKGKEFKCKVNSKSLPSPIERTISKAKGQPHEPQVYVLPPAQEELSRNKVSVTCLIKSFHPPDIAVEWEITGQPEPENNYRTTPPQLDSDGTYFVYSKLSVDRSHWQRGNTYTCSVLHEALHSHHTQKSLTQSPGK | 8.6 | 0.00987 | 1.15e+06
anti-NGF feline IgG1a, Fc variant S434Y, E293D (antibody, part only; not given: anti-NGF variable domains, light chain, not shown: another chain or arm of the molecule; small tags and cut ends) Fc: PPEMLGGPSIFIFPPKPKDTLSISRTPEVTCLVVDLGPDDSDVQITWFVDNTQVYTAKTSPRDEQFNSTYRVVSVLPILHQDWLKGKEFKCKVNSKSLPSPIERTISKAKGQPHEPQVYVLPPAQEELSRNKVSVTCLIKSFHPPDIAVEWEITGQPEPENNYRTTPPQLDSDGTYFVYSKLSVDRSHWQRGNTYTCSVSHEALHYHHTQKSLTQSPGK | 3.4 | 0.00534 | 1.57e+06
anti-NGF feline IgG1a, Fc variant S428L, S252R (antibody, part only; not given: anti-NGF variable domains, not shown: another chain or arm of the molecule; small tags and cut ends) Fc: PPEMLGGPSIFIFPPKPKDTLRISRTPEVTCLVVDLGPDDSDVQITWFVDNTQVYTAKTSPREEQFNSTYRVVSVLPILHQDWLKGKEFKCKVNSKSLPSPIERTISKAKGQPHEPQVYVLPPAQEELSRNKVSVTCLIKSFHPPDIAVEWEITGQPEPENNYRTTPPQLDSDGTYFVYSKLSVDRSHWQRGNTYTCSVLHEALHSHHTQKSLTQSPGK | 9 | 0.00873 | 974000
anti-NGF feline IgG1a, Fc variant S434F (antibody, part only; not given: anti-NGF variable domains, light chain, not shown: another chain or arm of the molecule; small tags and cut ends) Fc: PPEMLGGPSIFIFPPKPKDTLSISRTPEVTCLVVDLGPDDSDVQITWFVDNTQVYTAKTSPREEQFNSTYRVVSVLPILHQDWLKGKEFKCKVNSKSLPSPIERTISKAKGQPHEPQVYVLPPAQEELSRNKVSVTCLIKSFHPPDIAVEWEITGQPEPENNYRTTPPQLDSDGTYFVYSKLSVDRSHWQRGNTYTCSVSHEALHFHHTQKSLTQSPGK | 4.2 | 0.00718 | 1.73e+06
anti-NGF feline IgG1a, Fc variant S428L, D312T (antibody, part only; not given: anti-NGF variable domains, not shown: another chain or arm of the molecule; small tags and cut ends) Fc: PPEMLGGPSIFIFPPKPKDTLSISRTPEVTCLVVDLGPDDSDVQITWFVDNTQVYTAKTSPREEQFNSTYRVVSVLPILHQTWLKGKEFKCKVNSKSLPSPIERTISKAKGQPHEPQVYVLPPAQEELSRNKVSVTCLIKSFHPPDIAVEWEITGQPEPENNYRTTPPQLDSDGTYFVYSKLSVDRSHWQRGNTYTCSVLHEALHSHHTQKSLTQSPGK | 11.2 | 0.0113 | 1.01e+06
anti-NGF feline IgG1a, Fc variant S434Y, L309E (antibody, part only; not given: Anti-NGF variable domains, not shown: another chain or arm of the molecule; small tags and cut ends) Fc: PPEMLGGPSIFIFPPKPKDTLSISRTPEVTCLVVDLGPDDSDVQITWFVDNTQVYTAKTSPREEQFNSTYRVVSVLPIEHQDWLKGKEFKCKVNSKSLPSPIERTISKAKGQPHEPQVYVLPPAQEELSRNKVSVTCLIKSFHPPDIAVEWEITGQPEPENNYRTTPPQLDSDGTYFVYSKLSVDRSHWQRGNTYTCSVSHEALHYHHTQKSLTQSPGK | 4.1 | 0.00458 | 1.13e+06
anti-NGF feline IgG1a, Fc variant S428L, Q311K (antibody, part only; not given: anti-NGF variable domains, light chain, not shown: another chain or arm of the molecule; small tags and cut ends) Fc: PPEMLGGPSIFIFPPKPKDTLSISRTPEVTCLVVDLGPDDSDVQITWFVDNTQVYTAKTSPREEQFNSTYRVVSVLPILHKDWLKGKEFKCKVNSKSLPSPIERTISKAKGQPHEPQVYVLPPAQEELSRNKVSVTCLIKSFHPPDIAVEWEITGQPEPENNYRTTPPQLDSDGTYFVYSKLSVDRSHWQRGNTYTCSVLHEALHSHHTQKSLTQSPGK | 10.5 | 0.0101 | 958000
anti-NGF feline IgG1a, Fc variant S428L (antibody, part only; not given: Anti-NGF variable domains, not shown: another chain or arm of the molecule; small tags and cut ends) Fc: PPEMLGGPSIFIFPPKPKDTLSISRTPEVTCLVVDLGPDDSDVQITWFVDNTQVYTAKTSPREEQFNSTYRVVSVLPILHQDWLKGKEFKCKVNSKSLPSPIERTISKAKGQPHEPQVYVLPPAQEELSRNKVSVTCLIKSFHPPDIAVEWEITGQPEPENNYRTTPPQLDSDGTYFVYSKLSVDRSHWQRGNTYTCSVLHEALHSHHTQKSLTQSPGK | 16.7 | 0.0241 | 1.45e+06
anti-NGF feline IgG1a, Fc variant S434Y, K326D (antibody, part only; not given: anti-NGF variable domains, light chain, not shown: another chain or arm of the molecule; small tags and cut ends) Fc: PPEMLGGPSIFIFPPKPKDTLSISRTPEVTCLVVDLGPDDSDVQITWFVDNTQVYTAKTSPREEQFNSTYRVVSVLPILHQDWLKGKEFKCKVNSDSLPSPIERTISKAKGQPHEPQVYVLPPAQEELSRNKVSVTCLIKSFHPPDIAVEWEITGQPEPENNYRTTPPQLDSDGTYFVYSKLSVDRSHWQRGNTYTCSVSHEALHYHHTQKSLTQSPGK | 4 | 0.00549 | 1.38e+06
anti-NGF feline IgG1a, Fc variant S434Y, T286E (antibody, part only; not given: anti-NGF variable domains, light chain, not shown: another chain or arm of the molecule; small tags and cut ends) Fc: PPEMLGGPSIFIFPPKPKDTLSISRTPEVTCLVVDLGPDDSDVQITWFVDNTQVYEAKTSPREEQFNSTYRVVSVLPILHQDWLKGKEFKCKVNSKSLPSPIERTISKAKGQPHEPQVYVLPPAQEELSRNKVSVTCLIKSFHPPDIAVEWEITGQPEPENNYRTTPPQLDSDGTYFVYSKLSVDRSHWQRGNTYTCSVSHEALHYHHTQKSLTQSPGK | 3.6 | 0.00345 | 965000
anti-NGF feline IgG1a, Fc variant S434Y, T289K (antibody, part only; not given: Anti-NGF variable domains, not shown: another chain or arm of the molecule; small tags and cut ends) Fc: PPEMLGGPSIFIFPPKPKDTLSISRTPEVTCLVVDLGPDDSDVQITWFVDNTQVYTAKKSPREEQFNSTYRVVSVLPILHQDWLKGKEFKCKVNSKSLPSPIERTISKAKGQPHEPQVYVLPPAQEELSRNKVSVTCLIKSFHPPDIAVEWEITGQPEPENNYRTTPPQLDSDGTYFVYSKLSVDRSHWQRGNTYTCSVSHEALHYHHTQKSLTQSPGK | 3.6 | 0.00559 | 1.53e+06
anti-NGF feline IgG1a, Fc variant S428L, I377V (antibody, part only; not given: anti-NGF variable domains, not shown: another chain or arm of the molecule; small tags and cut ends) Fc: PPEMLGGPSIFIFPPKPKDTLSISRTPEVTCLVVDLGPDDSDVQITWFVDNTQVYTAKTSPREEQFNSTYRVVSVLPILHQDWLKGKEFKCKVNSKSLPSPIERTISKAKGQPHEPQVYVLPPAQEELSRNKVSVTCLIKSFHPPDVAVEWEITGQPEPENNYRTTPPQLDSDGTYFVYSKLSVDRSHWQRGNTYTCSVLHEALHSHHTQKSLTQSPGK | 10.8 | 0.0183 | 1.69e+06
anti-NGF feline IgG1a, Fc variant S428L, Q311V (antibody, part only; not given: Anti-NGF variable domains, not shown: another chain or arm of the molecule; small tags and cut ends) Fc: PPEMLGGPSIFIFPPKPKDTLSISRTPEVTCLVVDLGPDDSDVQITWFVDNTQVYTAKTSPREEQFNSTYRVVSVLPILHVDWLKGKEFKCKVNSKSLPSPIERTISKAKGQPHEPQVYVLPPAQEELSRNKVSVTCLIKSFHPPDIAVEWEITGQPEPENNYRTTPPQLDSDGTYFVYSKLSVDRSHWQRGNTYTCSVLHEALHSHHTQKSLTQSPGK | 11.7 | 0.0107 | 916000
anti-NGF feline IgG1a, Fc variant S434Y, E293K (antibody, part only; not given: anti-NGF variable domains, light chain, not shown: another chain or arm of the molecule; small tags and cut ends) Fc: PPEMLGGPSIFIFPPKPKDTLSISRTPEVTCLVVDLGPDDSDVQITWFVDNTQVYTAKTSPRKEQFNSTYRVVSVLPILHQDWLKGKEFKCKVNSKSLPSPIERTISKAKGQPHEPQVYVLPPAQEELSRNKVSVTCLIKSFHPPDIAVEWEITGQPEPENNYRTTPPQLDSDGTYFVYSKLSVDRSHWQRGNTYTCSVSHEALHYHHTQKSLTQSPGK | 4.1 | 0.00501 | 1.22e+06

Next, values leading:

Kd [nM] | koff [s⁻¹] | kon [M⁻¹ s⁻¹] | Binder
3.1 | 0.00504 | 1.61e+06 | anti-NGF feline IgG1a, Fc variant S434Y, S254K (antibody, part only; not given: anti-NGF variable domains, light chain, not shown: another chain or arm of the molecule; small tags and cut ends) Fc: PPEMLGGPSIFIFPPKPKDTLSIKRTPEVTCLVVDLGPDDSDVQITWFVDNTQVYTAKTSPREEQFNSTYRVVSVLPILHQDWLKGKEFKCKVNSKSLPSPIERTISKAKGQPHEPQVYVLPPAQEELSRNKVSVTCLIKSFHPPDIAVEWEITGQPEPENNYRTTPPQLDSDGTYFVYSKLSVDRSHWQRGNTYTCSVSHEALHYHHTQKSLTQSPGK
3.4 | 0.00667 | 1.98e+06 | anti-NGF feline IgG1a, Fc variant S434Y, Q347L (antibody, part only; not given: Anti-NGF variable domains, not shown: another chain or arm of the molecule; small tags and cut ends) Fc: PPEMLGGPSIFIFPPKPKDTLSISRTPEVTCLVVDLGPDDSDVQITWFVDNTQVYTAKTSPREEQFNSTYRVVSVLPILHQDWLKGKEFKCKVNSKSLPSPIERTISKAKGQPHEPLVYVLPPAQEELSRNKVSVTCLIKSFHPPDIAVEWEITGQPEPENNYRTTPPQLDSDGTYFVYSKLSVDRSHWQRGNTYTCSVSHEALHYHHTQKSLTQSPGK
1.8 | 0.004 | 2.21e+06 | anti-NGF feline IgG1a, Fc variant S434Y, L309V (antibody, part only; not given: anti-NGF variable domains, light chain, not shown: another chain or arm of the molecule; small tags and cut ends) Fc: PPEMLGGPSIFIFPPKPKDTLSISRTPEVTCLVVDLGPDDSDVQITWFVDNTQVYTAKTSPREEQFNSTYRVVSVLPIVHQDWLKGKEFKCKVNSKSLPSPIERTISKAKGQPHEPQVYVLPPAQEELSRNKVSVTCLIKSFHPPDIAVEWEITGQPEPENNYRTTPPQLDSDGTYFVYSKLSVDRSHWQRGNTYTCSVSHEALHYHHTQKSLTQSPGK
3.3 | 0.00583 | 1.77e+06 | anti-NGF feline IgG1a, Fc variant S434F, E380D (antibody, part only; not given: anti-NGF variable domains, light chain, not shown: another chain or arm of the molecule; small tags and cut ends) Fc: PPEMLGGPSIFIFPPKPKDTLSISRTPEVTCLVVDLGPDDSDVQITWFVDNTQVYTAKTSPREEQFNSTYRVVSVLPILHQDWLKGKEFKCKVNSKSLPSPIERTISKAKGQPHEPQVYVLPPAQEELSRNKVSVTCLIKSFHPPDIAVDWEITGQPEPENNYRTTPPQLDSDGTYFVYSKLSVDRSHWQRGNTYTCSVSHEALHFHHTQKSLTQSPGK
2.9 | 0.00371 | 1.28e+06 | anti-NGF feline IgG1a, Fc variant S434Y, T286D (antibody, part only; not given: anti-NGF variable domains, not shown: another chain or arm of the molecule; small tags and cut ends) Fc: PPEMLGGPSIFIFPPKPKDTLSISRTPEVTCLVVDLGPDDSDVQITWFVDNTQVYDAKTSPREEQFNSTYRVVSVLPILHQDWLKGKEFKCKVNSKSLPSPIERTISKAKGQPHEPQVYVLPPAQEELSRNKVSVTCLIKSFHPPDIAVEWEITGQPEPENNYRTTPPQLDSDGTYFVYSKLSVDRSHWQRGNTYTCSVSHEALHYHHTQKSLTQSPGK
3.3 | 0.00498 | 1.51e+06 | anti-NGF feline IgG1a, Fc variant S434Y, L262E (antibody, part only; not given: Anti-NGF variable domains, not shown: another chain or arm of the molecule; small tags and cut ends) Fc: PPEMLGGPSIFIFPPKPKDTLSISRTPEVTCEVVDLGPDDSDVQITWFVDNTQVYTAKTSPREEQFNSTYRVVSVLPILHQDWLKGKEFKCKVNSKSLPSPIERTISKAKGQPHEPQVYVLPPAQEELSRNKVSVTCLIKSFHPPDIAVEWEITGQPEPENNYRTTPPQLDSDGTYFVYSKLSVDRSHWQRGNTYTCSVSHEALHYHHTQKSLTQSPGK
